# Reference: US20220048967A1 (published 2022)
# Where a chain is given by its changes, count along the chain named. Numbered stars: 1 amine (or outer) side, 2 acyl side, 3 side chain; on linkers, the order of the positions; unused ones are H or OH. Square brackets hold non-standard residues; d marks the D form. Side chains are listed from the residue outwards. Ends that are not written are not given here. * marks the point of attachment. C20 diacid = O=C(O)CCCCCCCCCCCCCCCCCCC(=O)*; C18 diacid = O=C(O)CCCCCCCCCCCCCCCCC(=O)*; γGlu = O=C(O)[C@H](CCC(=O)[*:2])N[*:1]; AEEA = NCCOCCOCC(=O)O; Aib = CC(C)(N)C(=O)O
# B1: Example 330 (peptide)
# peptide: Y[Aib]EGTFTSDYSILLDEK([AEEA-AEEA-γGlu-C20 diacid])AQ[Aib]AFIEYLIAGGPSSGAPPPS-NH2
# modifications: N-terminus assumed
# SMILES: CC[C@H](C)[C@H](NC(=O)[C@H](CC(C)C)NC(=O)[C@H](Cc1ccc(O)cc1)NC(=O)[C@H](CCC(=O)O)NC(=O)[C@@H](NC(=O)[C@H](Cc1ccccc1)NC(=O)[C@H](C)NC(=O)C(C)(C)NC(=O)[C@H](CCC(N)=O)NC(=O)[C@H](C)NC(=O)[C@H](CCCCNC(=O)COCCOCCNC(=O)COCCOCCNC(=O)CC[C@H](NC(=O)CCCCCCCCCCCCCCCCCCC(=O)O)C(=O)O)NC(=O)[C@H](CCC(=O)O)NC(=O)[C@H](CC(=O)O)NC(=O)[C@H](CC(C)C)NC(=O)[C@H](CC(C)C)NC(=O)[C@@H](NC(=O)[C@H](CO)NC(=O)[C@H](Cc1ccc(O)cc1)NC(=O)[C@H](CC(=O)O)NC(=O)[C@H](CO)NC(=O)[C@@H](NC(=O)[C@H](Cc1ccccc1)NC(=O)[C@@H](NC(=O)CNC(=O)[C@H](CCC(=O)O)NC(=O)C(C)(C)NC(=O)[C@@H](N)Cc1ccc(O)cc1)[C@@H](C)O)[C@@H](C)O)[C@@H](C)CC)[C@@H](C)CC)C(=O)N[C@@H](C)C(=O)NCC(=O)NCC(=O)N1CCC[C@H]1C(=O)N[C@@H](CO)C(=O)N[C@@H](CO)C(=O)NCC(=O)N[C@@H](C)C(=O)N1CCC[C@H]1C(=O)N1CCC[C@H]1C(=O)N1CCC[C@H]1C(=O)N[C@@H](CO)C(N)=O
# B2: Example 288 (peptide)
# peptide: Y[Aib]EGTFTSDYSILLDKK([AEEA-AEEA-γGlu-C20 diacid])AQ[Aib]AFIEYLIAGGPSSGAPPPS-NH2
# modifications: N-terminus assumed
# SMILES: CC[C@H](C)[C@H](NC(=O)[C@H](CC(C)C)NC(=O)[C@H](Cc1ccc(O)cc1)NC(=O)[C@H](CCC(=O)O)NC(=O)[C@@H](NC(=O)[C@H](Cc1ccccc1)NC(=O)[C@H](C)NC(=O)C(C)(C)NC(=O)[C@H](CCC(N)=O)NC(=O)[C@H](C)NC(=O)[C@H](CCCCNC(=O)COCCOCCNC(=O)COCCOCCNC(=O)CC[C@H](NC(=O)CCCCCCCCCCCCCCCCCCC(=O)O)C(=O)O)NC(=O)[C@H](CCCCN)NC(=O)[C@H](CC(=O)O)NC(=O)[C@H](CC(C)C)NC(=O)[C@H](CC(C)C)NC(=O)[C@@H](NC(=O)[C@H](CO)NC(=O)[C@H](Cc1ccc(O)cc1)NC(=O)[C@H](CC(=O)O)NC(=O)[C@H](CO)NC(=O)[C@@H](NC(=O)[C@H](Cc1ccccc1)NC(=O)[C@@H](NC(=O)CNC(=O)[C@H](CCC(=O)O)NC(=O)C(C)(C)NC(=O)[C@@H](N)Cc1ccc(O)cc1)[C@@H](C)O)[C@@H](C)O)[C@@H](C)CC)[C@@H](C)CC)C(=O)N[C@@H](C)C(=O)NCC(=O)NCC(=O)N1CCC[C@H]1C(=O)N[C@@H](CO)C(=O)N[C@@H](CO)C(=O)NCC(=O)N[C@@H](C)C(=O)N1CCC[C@H]1C(=O)N1CCC[C@H]1C(=O)N1CCC[C@H]1C(=O)N[C@@H](CO)C(N)=O
# B3: Example 329 (peptide)
# peptide: XXEGTXTSDYSILLDKKAQXAFIEYLIEGGPSSGAPPPS
# modifications: D-Tyr1, Aib2, αMeF6, K17 conjugated to (2-[2-(2-Amino-ethoxy)-ethoxy]-acetyl)2-(γ-Glu)-CO-(CH2)18-CO2H, Aib20, C-terminal amide (NH2)
# B4: Example 316 (peptide)
# peptide: Y[Aib]EGTFTSDYSILLDKK([AEEA-AEEA-γGlu-C18 diacid])AQ[Aib]AFIEYLIAGGPSSGAPPPS-NH2
# modifications: N-terminus assumed
# SMILES: CC[C@H](C)[C@H](NC(=O)[C@H](CC(C)C)NC(=O)[C@H](Cc1ccc(O)cc1)NC(=O)[C@H](CCC(=O)O)NC(=O)[C@@H](NC(=O)[C@H](Cc1ccccc1)NC(=O)[C@H](C)NC(=O)C(C)(C)NC(=O)[C@H](CCC(N)=O)NC(=O)[C@H](C)NC(=O)[C@H](CCCCNC(=O)COCCOCCNC(=O)COCCOCCNC(=O)CC[C@H](NC(=O)CCCCCCCCCCCCCCCCC(=O)O)C(=O)O)NC(=O)[C@H](CCCCN)NC(=O)[C@H](CC(=O)O)NC(=O)[C@H](CC(C)C)NC(=O)[C@H](CC(C)C)NC(=O)[C@@H](NC(=O)[C@H](CO)NC(=O)[C@H](Cc1ccc(O)cc1)NC(=O)[C@H](CC(=O)O)NC(=O)[C@H](CO)NC(=O)[C@@H](NC(=O)[C@H](Cc1ccccc1)NC(=O)[C@@H](NC(=O)CNC(=O)[C@H](CCC(=O)O)NC(=O)C(C)(C)NC(=O)[C@@H](N)Cc1ccc(O)cc1)[C@@H](C)O)[C@@H](C)O)[C@@H](C)CC)[C@@H](C)CC)C(=O)N[C@@H](C)C(=O)NCC(=O)NCC(=O)N1CCC[C@H]1C(=O)N[C@@H](CO)C(=O)N[C@@H](CO)C(=O)NCC(=O)N[C@@H](C)C(=O)N1CCC[C@H]1C(=O)N1CCC[C@H]1C(=O)N1CCC[C@H]1C(=O)N[C@@H](CO)C(N)=O
# B5: Example 289 (peptide)
# peptide: YXEGTFTSDYSIXLDKKAQXEFIEYLIAGGPSSGAPPPS
# modifications: Aib2, αMeL13, K17 conjugated to (2-[2-(2-Amino-ethoxy)-ethoxy]-acetyl)2-(γ-Glu)-CO-(CH2)18-CO2H, Aib20, C-terminal amide (NH2)
# B6: Example 290 (peptide)
# peptide: B5 peptide with Y1X
# modifications: D-Tyr1, Aib2, αMeL13, K17 conjugated to (2-[2-(2-Amino-ethoxy)-ethoxy]-acetyl)2-(γ-Glu)-CO-(CH2)18-CO2H, Aib20, C-terminal amide (NH2)
# B7: Example 333 (peptide)
# peptide: B5 peptide with A28E
# modifications: Aib2, αMeL13, K17 conjugated to (2-[2-(2-Amino-ethoxy)-ethoxy]-acetyl)2-(γ-Glu)-CO-(CH2)18-CO2H, Aib20, C-terminal amide (NH2)
# B8: Example 331 (peptide)
# peptide: B5 peptide with K16E
# modifications: Aib2, αMeL13, K17 conjugated to (2-[2-(2-Amino-ethoxy)-ethoxy]-acetyl)2-(γ-Glu)-CO-(CH2)18-CO2H, Aib20, C-terminal amide (NH2)
# B9: Example 335 (peptide)
# peptide: B3 peptide with L13X
# modifications: not fully specified; D-Tyr1, Aib2, αMeF6, αMeL13, K17 conjugated to (2-[2-(2-Amino-ethoxy)-ethoxy]-acetyl)2-(γ-Glu)-CO-(CH2)18-CO2H, Aib20, C-terminal amide (NH2)
# B10: Example 336 (peptide)
# peptide: B3 peptide with L13X
# modifications: not fully specified; D-Tyr1, Aib2, αMeF(2F)6, αMeL13, K17 conjugated to (2-[2-(2-Amino-ethoxy)-ethoxy]-acetyl)2-(γ-Glu)-CO-(CH2)18-CO2H, Aib20, C-terminal amide (NH2)
# B11: Example 327 (peptide)
# peptide: B3 peptide with X1F, X6F, L13X
# modifications: Aib2, αMeL13, K17 conjugated to (2-[2-(2-Amino-ethoxy)-ethoxy]-acetyl)2-(γ-Glu)-CO-(CH2)18-CO2H, Aib20, C-terminal amide (NH2)
# B12: Example 332 (peptide)
# peptide: B5 peptide with K16E, E21A
# modifications: Aib2, αMeL13, K17 conjugated to (2-[2-(2-Amino-ethoxy)-ethoxy]-acetyl)2-(γ-Glu)-CO-(CH2)18-CO2H, Aib20, C-terminal amide (NH2)
# B13: Example 334 (peptide)
# peptide: B3 peptide with X6F, L13X
# modifications: not fully specified; D-Tyr1, Aib2, αMeL13, K17 conjugated to (2-[2-(2-Amino-ethoxy)-ethoxy]-acetyl)2-(γ-Glu)-CO-(CH2)18-CO2H, Aib20, C-terminal amide (NH2)
# Biological target: human GLP-1 receptor (human, UniProt P43220 24-463)
# Assay: cell-based or functional assay
Binder,hGLP1R GTPgS % Top,hGLP1R GTPgS Rel EC50
B1,47.8%,1.05 nM
B2,66.7%,0.666 nM
B3,83.6%,0.343 nM
B4,56.7%,0.766 nM
B5,83.7%,0.404 nM
B6,66.2%,0.466 nM
B7,83.4%,0.442 nM
B8,80.9%,0.375 nM
B9,89.3%,0.285 nM
B10,90.2%,0.377 nM
B11,75.6%,0.287 nM
B12,81.5%,0.453 nM
B13,70.2%,0.432 nM

# Biological target: Pro-Link-tagged Human GLP-1R (human, UniProt P43220 24-463)
# Assay: cell-based or functional assay
Binder,hGLP1R B-Arrestin2 Rel EC50,hGLP1R B-Arrestin2 % Top
B1,> 10900 nM,–
B2,6.74 nM,21.3%
B3,4.73 nM,63.4%
B4,6.08 nM,26.1%
B5,12.4 nM,51.3%
B6,23.8 nM,20%
B7,54.8 nM,58.2%
B8,12.8 nM,44.3%
B9,5.31 nM,73%
B10,7.78 nM,82.5%
B11,3.79 nM,41.6%
B12,17.1 nM,45.6%
B13,> 10300 nM,–
